Patent publication US20210122797A1

Target: GLP-1 receptor (on pancreatic islets of C57BL/6J mice) (mouse (islets from C57BL/6J mice)) (UniProt O35659)

Insulin Secretion ng/islet/hour (glucose-stimulated insulin secretion, 16.7 mM glucose + 10 nM peptide) (ng/islet/hour): 5.4
Substance: glucagon like peptide-1 (GLP-1) (ligand)
